Data: patent publication US9394371 (Scripps Research, dated 2016)

Key:
[1] = molecular target: T1, AIP-3 (S. aureus III native cyclic signaling peptide) (Staphylococcus aureus); assay: competition ELISA on AP1-BSA
T1 construct: also called AIP3 wt; AIP-III

[2] = molecular target: AIP-1 (S. aureus I native cyclic signaling peptide) (Staphylococcus aureus); assay: competition ELISA on AP1-BSA

B1: AP1-15B4 (antibody, V domains shown)
VH: EVHLVESGGDLVKPGGSLKLSCAASGFAFSDFAMSWVRQTPEKRLEWVAIIKSDDSYTYYPDSVRDRFTISRDNARNTLYLQMTSLRSEDTALYYCTKIYDAYFYAMDYWGQGTSVTVSS
VL: DIVRTQSPLSLSVSLGDQASISCRSSQSLLHSNGNTYLHWYLQKPGQSPKLLIYKVSNRFSGVPDRFSGSGSGTDFTLKISILEAEDLGIYFCSQSTHFPTFGGGTKLEIK
notes: also called mAb AP1-15B4; AP1 Sups 15B4
Question: How did the Kd [1] turn out when B1 was run?
Answer: ~1 µM

B2: 3B1 (antibody, V domains shown)
VH: QVQLQESGPGLVKPSETLSLTCTVSGGSISSYYWSWIRQPPGKGLEWIGYIYYSGNTNSNPSLKSRVTISVDTSKNQFSLKLSSVTAADTAVYYCARTYYDSSGYYYRAFDIWGQGTMVTVSS
VL: DIQMTQSPSSLSASEGDRVTITCRASQGIRNDLGWYQQKPGKAPKRLIYAASSLQSGVPLRFSGSGSGTEFTLTISSLQPEDFATYYCLQYNSYPWTFGQGTKVEIKR
Question: With B2 as the binder, how does the Kd [2] read?
Answer: ~6 µM
